Results on six molecules are retold here after patent US20200308299A1, “ANTI-GPC-1 ANTIBODY” (National University Corporation Kochi University, priority 2017, published 2020).

Positions count from the first letter of the chain named.

B1: clone 02a010: anti-human Glypican-1 antibody, heavy chain SEQ ID NO: 174, light chain SEQ ID NO: 176 (antibody)
heavy: MKHLWFFLLLVAAPRWVLSEVKLVESGGGLVKPGGSRKLSCAASGFTFSDYGMHWVRQAPEKGLEWVAYINSGSSTIYYADTVKGRFTISRDNAKNTLFLQMTSLRSGDTAMYYCARHSYYSYDVGGDYVMDYWGQGTSVTVSSAKTTAPSVYPLAPVCGDTTGSSVTLGCLVKGYFPEPVTLTWNSGSLSSGVHTFPAVLQSDLYTLSSSVTVTSSTWPSQSITCNVAHPASSTKVDKKIEPRGPTIKPCPPCKCPAPNLLGGPSVFIFPPKIKDVLMISLSPIVTCVVVDVSEDDPDVQISWFVNNVEVHTAQTQTHREDYNSTLRVVSALPIQHQDWMSGKEFKCKVNNKDLPAPIERTISKPKGSVRAPQVYVLPPPEEEMTKKQVTLTCMVTDFMPEDIYVEWTNNGKTELNYKNTEPVLDSDGSYFMYSKLRVEKKNWVERNSYSCSVVHEGLHNHHTTKSFSRTPGK
light: MRLLAQLLGLLMLWVPGSSGDIVLTQSPKFMSTSVGDRVSITCKASQDVGTAVAWYQQKPGQSPKLLIYWASTRHTGVPDRFTGSGSGTDFTLTISNVQSEDLADYFCQQYSSYPLTFGAGTKLEIKRADAAPTVSIFPPSSEQLTSGGASVVCFLNNFYPKDINVKWKIDGSERQNGVLNSWTDQDSKDSTYSMSSTLTLTKDEYERHNSYTCEATHKTSTSPIVKSFNRNEC
B2: clone 02b006: anti-human Glypican-1 antibody, heavy chain SEQ ID NO: 194, light chain SEQ ID NO: 196 (antibody)
heavy: B1 heavy with K22Q, N71S, G108E, M112I, A116V, S122N, V125I, D128Y, V130A
light: MRLLAQLLGLLMLWVPGSSGDIVLTQSPSSLSASLGERVSLTCRASQEISGYLSWLQQKPDGTIKRLIYAASTLDSGVPKRFSGSRSGSDYSLTISSLESEDFADYYCLQYASYPLTFGAGTKLEIKRADAAPTVSIFPPSSEQLTSGGASVVCFLNNFYPKDINVKWKIDGSERQNGVLNSWTDQDSKDSTYSMSSTLTLTKDEYERHNSYTCEATHKTSTSPIVKSFNRNEC
B3: clone 02a002: anti-human Glypican-1 antibody, heavy chain SEQ ID NO: 166, light chain SEQ ID NO: 168 (antibody)
heavy: B1 heavy with N71S, G108E
light: B1 light with L24M, T25S
B4: clone 18: anti-Glypican-1 antibody, heavy chain SEQ ID NO: 202, light chain SEQ ID NO: 204; sequence from WO 2015/098112 (antibody)
heavy: AVTLDESGGGLQTPGGTLSLVCKASGFDFSSVNMFWVRQAPGKGLEFVAGIDNDATFTLYGSAVKGRASISRDNGQSTVRLQLNNLRAEDTGTYYCAKTLCSTTWGCGAYSAGDIDAWGHGTEVIVSS
light: ASTQPSSVSANPGETVKITCSGGGSSGYGYYGWYQQKSPGSAPVTVIYNNNKRPTDIPSRFSGALSGSTATLTITGVQVEDEAVYYCGSRDNTYVGIFGAGTTLTVL
B5: clone 02a014: anti-human Glypican-1 antibody, heavy chain SEQ ID NO: 178, light chain SEQ ID NO: 180 (antibody)
heavy: MKHLWFFLLLVAAPRWVLSEVQLQQSGPELVKPGASVKISCKASGYSFTGYYIHWVKQSPEKSLEWIGEINPSTGDITYNQKFKAKATLTVDKSSSTAYMQLKSLTSDDSAVYYCARERNYDRFAYWGQGTLVTVSSAKTTAPSVYPLAPVCGDTTGSSVTLGCLVKGYFPEPVTLTWNSGSLSSGVHTFPAVLQSDLYTLSSSVTVTSSTWPSQSITCNVAHPASSTKVDKKIEPRGPTIKPCPPCKCPAPNLLGGPSVFIFPPKIKDVLMISLSPIVTCVVVDVSEDDPDVQISWFVNNVEVHTAQTQTHREDYNSTLRVVSALPIQHQDWMSGKEFKCKVNNKDLPAPIERTISKPKGSVRAPQVYVLPPPEEEMTKKQVTLTCMVTDFMPEDIYVEWTNNGKTELNYKNTEPVLDSDGSYFMYSKLRVEKKNWVERNSYSCSVVHEGLHNHHTTKSFSRTPGK
light: MRLLAQLLGLLMLWVPGSSGSIVMTQTPALMAASPGEKVTITCSVSSSISSSNLHWYQQKSETSPKPWIYGTSNLASGVPVRFSGSGSGTSYSLTISSMEAEDAATYYCQQWSSYPLTFGAGTKLEIKRADAAPTVSIFPPSSEQLTSGGASVVCFLNNFYPKDINVKWKIDGSERQNGVLNSWTDQDSKDSTYSMSSTLTLTKDEYERHNSYTCEATHKTSTSPIVKSFNRNEC
B6: clone 01a002: anti-human Glypican-1 antibody, heavy chain SEQ ID NO: 126, light chain SEQ ID NO: 128 (antibody)
heavy: MKHLWFFLLLVAAPRWVLSEVQLQQSGPELVKPGASVKISCKSSGYSFTRYYMHWVKHSPEKSLEWIGEINPSTGDTTYNQKFKAKATLTVDKSSSTAYMQLKSLTSEDSAVYYCAREKRDDGVLAYWGQGTLVTVSSAKTTAPSVYPLAPVCGDTTGSSVTLGCLVKGYFPEPVTLTWNSGSLSSGVHTFPAVLQSDLYTLSSSVTVTSSTWPSQSITCNVAHPASSTKVDKKIEPRGPTIKPCPPCKCPAPNLLGGPSVFIFPPKIKDVLMISLSPIVTCVVVDVSEDDPDVQISWFVNNVEVHTAQTQTHREDYNSTLRVVSALPIQHQDWMSGKEFKCKVNNKDLPAPIERTISKPKGSVRAPQVYVLPPPEEEMTKKQVTLTCMVTDFMPEDIYVEWTNNGKTELNYKNTEPVLDSDGSYFMYSKLRVEKKNWVERNSYSCSVVHEGLHNHHTTKSFSRTPGK
light: MRLLAQLLGLLMLWVPGSSGDIQMTQSPKFLPVSAGDRVTMTCKASQSVGNNVAWYQQKPGQSPKLLIYYASNRYTGVPDRFTGSGSGTDFTFTISSVQVEDLAVYFCQQHYSSPLTFGAGTKLELKRADAAPTVSIFPPSSEQLTSGGASVVCFLNNFYPKDINVKWKIDGSERQNGVLNSWTDQDSKDSTYSMSSTLTLTKDEYERHNSYTCEATHKTSTSPIVKSFNRNEC

The first assay relates to TE14 cells. Put plainly: ADC assay combining anti-GPC-1 antibody and MMAF binding secondary antibody, TE14 cells. The class given is cell-based. As to conditions: primary antibody plus MMAF secondary antibody. The procedure:
FIG. 1 depicts a schematic diagram of an ADC used in an assay. This Example used a secondary antibody (MORADEC) to the anti-GPC1 antibody made in Example 1, to which an anticancer agent (MMAF) was bound via a linker.
2000 TE14 cells were added to a 96-well plate at 80 μl. The cells were cultured overnight at 37° C. in a 5% CO2 incubator. The next day, 10 μl of an anticancer agent bound secondary antibody and 10 μl of a primary antibody concentrated 10-fold relative to the final concentration was added to each well, so that the total amount was 100 μl. The cells were cultured for 6 days at 37° C. in a 5% CO2 incubator. The cell viability was measured by using a CellTiter-Glo Luminescent Cell Viability Assay reagent to detect the amount of ATP. RPMI1640+10% FBS+1% PS was used as the medium. The final concentrations of the primary antibody were 0, 0.004, 0.0156, 0.0625, 0.25, and 1.0 nM. 2 μg/ml of Fab-aMFc-CL-MMAF (model number: AM202AF-50, Moradec) was used as the secondary antibody.
Consider B1, for which the “EC50 values against TE14 cells” value was “excellent EC50 values”.
Same read-out and setting: then B2, with “excellent EC50 values”; and B3, with “excellent EC50 values”.
The same measure, in the same setting: then B4, with “excellent EC50 values”; and B5, with “excellent EC50 values”.
Turning to B6, the “EC50 values against TE14 cells” value is “excellent EC50 values”.

A further assay relates to DU145 cells. The experiment in a line: ADC assay combining anti-GPC-1 antibody and MMAF binding secondary antibody in DU145 cells. The assay is classed as cell-based. As to conditions: primary antibody plus MMAF secondary antibody 2 μg/ml, 3 days. On the procedure: 2000 DU145 cells were added to a 96-well plate at 80 μl. The cells were cultured overnight at 37° C. in a 5% CO2 incubator. The next day, 10 μl each of anticancer agent binding secondary antibody (2 μg/ml) and primary antibody concentrated 10-fold relative to the final concentration was added to each well, so that the total amount was 100 μl. The cells were cultured for 3 days at 37° C. in a 5% CO2 incubator. The cell viability was measured by using a CellTiter-Glo Luminescent Cell Viability Assay reagent to detect the amount of ATP. RPMI1640+10% FBS+1% PS was used as the medium. The final concentrations of the primary antibodies were […]. 2 μg/ml of Fab-aMFc-CL-MMAF (model number AM202AF-50, Moradec) was used as the secondary antibody. The EC50 value was analyzed with GraphPad Prism 6. The same experiment was conducted using 4000 MDA-MB231 cells as the control.
For B1, the “growth suppressing effect against DU145 cells” value is “high growth suppressing effect”.
B6: the “growth suppressing effect against DU145 cells” value is “high growth suppressing effect”.

The assay is the same for the next values; noted with them: primary antibody plus MMAF secondary antibody, 3 days.
For B1, the “EC50 values against DU145 cells” value is reported as “excellent EC50 values”.
Same read-out and setting: then B2, with “excellent EC50 values”; and B3, with “excellent EC50 values”.
The same measure, in the same setting: then B4, with “excellent EC50 values”; and B5, with “excellent EC50 values”; and B6, with “excellent EC50 values”.
